Results on three molecules are retold here after patent US20240368663A1, “CELL-FREE BIOPRODUCTION OF B-CRYPTOXANTHIN AND ZEAXANTHIN” (DEBUT BIOTECHNOLOGY, INC., priority 2021, published 2024).

The conditions of data set [1]: cited from earlier work.
The nature of data set [2]: Cell-free conversion of β-carotene to zeaxanthin with cell lysate expressing CrtZ. Format: biochemical. The settings on record: 1.67 mM β-carotene, 24 hours. How it is done: Enzyme Expression and Purification: All genes were synthesized and cloned into expression plasmids and then transformed into E. coli cells for expression. Cells were grown in Terrific Broth media supplemented with 50 μg/mL kanamycin sulfate at 37° C. and 200 rpm until A595=0.6. Cells were cooled to 18° C., protein expression was induced, and the cultures were grown for an additional 18 h. Cell pellets were collected by centrifugation, and then resuspended in a 1.8 mL lysis buffer (50 mM Tris pH 8.5, 150 mM NaCl, 10% Glycerol (v/v)) per gram of cell paste. Cell lysates were prepared by sonication and clarified by centrifugation at 11,000×g for 10 minutes, at 4° C. After clarification, lysate was kept on ice or flash frozen and stored at −80° C. for later use.
Analytical methods: For sampling, 5× volume of THE was mixed with the reaction fluid, followed by high-speed centrifugation. Samples were run on an HPLC system to examine the amount of β-cryptoxanthin and zeaxanthin present in the reaction mixture. The HPLC method was as follows: An Agilent 1200 HPLC was fitted with an Acclaim C-30 Column 250 mm×4.6 mm, 5 μm, equipped with an Acclaim C-30 guard column. The column was heated to 20° C. with the sample block being maintained at 20° C. For each sample, 10 μL was injected and the product was eluted at a flow rate of 1.0 ml/min using Methanol (solvent A) and tert-butyl-methyl ether (solvent B) with the following gradient: 80% A to 65% A for 10 min, 65% A to 10% A for 10 min, 10% A for 5 min, 10% A to 80% for 0.5 min, and 80% A for 5.5 min for column equilibration. The run time was a total of 31 minutes with zeaxanthin eluting at 7.2 mins, β-cryptoxanthin eluting at 12.2 minutes, and β-carotene eluting at 16.9 min. A diode array detector (DAD) was used for the detection of the molecule of interest at 450 nm.
As described herein, β-carotene is hydroxylated by the CrtZ enzyme (CrtZ, EC1.14.15.24) to form β-cryptoxanthin, and then β-cryptoxanthin is hydroxylated by CrtZ to form Zeaxanthin. […]

Where [3] appears, read: 2% polysorbate 20, 6% THE, 0.2 mM FeSO4, 16° C.

For `CC1=C(/C=C/C(C)=C/C=C/C(C)=C/C=C/C=C(C)/C=C/C=C(C)/C=C/C2=C(C)CCCC2(C)C)C(C)(C)CCC1` [β-carotene], the solubility in water result in data set [1] was “insoluble in water”.

In the case of `CC1=C(/C=C/C(C)=C/C=C/C(C)=C/C=C/C=C(C)/C=C/C=C(C)/C=C/C2=C(C)C[C@@H](O)CC2(C)C)C(C)(C)CCC1` [β-cryptoxanthin], the solubility in water entry in data set [1] is “insoluble in water”.

B1: P. ananatis CrtZ: β-carotene hydroxylase enzyme (CrtZ, EC1.14.15.24) from P. ananatis, used as E. coli cell lysate; likely Pantoea WP_013027996.1 (protein, listed as Pantoea sp.)
chain: MLWIWNALIVFVTVIGMEVVAALAHKYIMHGWGWGWHLSHHEPRKGAFEVNDLYAVVFAALSILLIYLGSTGMWPLQWIGAGMTAYGLLYFMVHDGLVHQRWPFRYIPRKGYLKRLYMAHRMHHAVRGKEGCVSFGFLYAPPLSKLQATLRERHGARAGAARDAQGGEDEPASGK
In the case of B1, the “β-carotene substrate converted into zeaxanthin” value in data set [2] (2% polysorbate 20 (v/v), 6% THE (v/v), 0.2 mM FeSO4, concentrated cell lysate, 16° C.) is 84 % (molar ratio). In data set [2] (setting [3]), the zeaxanthin concentration produced is recorded as about 1.4 mM and the zeaxanthin titer produced stood at 796 mg/L.
